Here are results for 12 variants from IntAct's records for PubMed 35512704.

B1: Mothers against decapentaplegic homolog 4 (Homo sapiens), Q13485 (parent)
chain: MDNMSITNTPTSNDACLSIVHSLMCHRQGGESETFAKRAIESLVKKLKEKKDELDSLITAITTNGAHPSKCVTIQRTLDGRLQVAGRKGFPHVIYARLWRWPDLHKNELKHVKYCQYAFDLKCDSVCVNPYHYERVVSPGIDLSGLTLQSNAPSSMMVKDEYVHDFEGQPSLSTEGHSIQTIQHPPSNRASTETYSTPALLAPSESNATSTANFPNIPVASTSQPASILGGSHSEGLLQIASGPQPGQQQNGFTGQPATYHHNSTTTWTGSRTAPYTPNLPHHQNGHLQHHPPMPPHPGHYWPVHNELAFQPPISNHPAPEYWCSIAYFEMDVQVGETFKVPSSCPIVTVDGYVDPSGGDRFCLGQLSNVHRTEAIERARLHIGKGVQLECKGEGDVWVRCLSDHAVFVQSYYLDREAGRAPGDAVHKIYPSAYIKVFDLRQCHRQMQQQAATAQAAAAAQAAAVAGNIPGPGSVGGIAPAISLSAAAGIGVDDLRRLCILRMSFVKGWGPDYPRQSIKETPCWIEIHLHRALQLLDEVLHTMPIADPQPLD
partner: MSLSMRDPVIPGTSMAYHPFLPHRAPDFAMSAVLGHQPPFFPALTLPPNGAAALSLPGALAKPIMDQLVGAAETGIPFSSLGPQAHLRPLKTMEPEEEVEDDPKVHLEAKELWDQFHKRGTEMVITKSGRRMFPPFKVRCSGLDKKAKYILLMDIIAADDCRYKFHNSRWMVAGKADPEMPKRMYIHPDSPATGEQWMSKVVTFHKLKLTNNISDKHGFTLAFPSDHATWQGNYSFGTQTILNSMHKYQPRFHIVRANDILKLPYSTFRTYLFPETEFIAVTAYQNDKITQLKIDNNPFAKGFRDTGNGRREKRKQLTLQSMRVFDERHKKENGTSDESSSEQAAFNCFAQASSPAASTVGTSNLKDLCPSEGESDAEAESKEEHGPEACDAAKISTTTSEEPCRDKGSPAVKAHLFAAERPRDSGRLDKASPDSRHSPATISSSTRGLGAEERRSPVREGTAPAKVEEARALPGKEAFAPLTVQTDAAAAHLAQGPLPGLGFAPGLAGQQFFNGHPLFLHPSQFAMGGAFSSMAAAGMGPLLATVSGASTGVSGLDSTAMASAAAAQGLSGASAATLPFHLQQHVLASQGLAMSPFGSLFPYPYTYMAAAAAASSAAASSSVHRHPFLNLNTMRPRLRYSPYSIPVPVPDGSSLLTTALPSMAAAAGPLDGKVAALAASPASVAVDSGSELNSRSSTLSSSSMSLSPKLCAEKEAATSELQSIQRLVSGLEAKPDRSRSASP
B2: Mothers against decapentaplegic homolog 4 (Homo sapiens), Q13485 (parent)
chain: B1 chain
partner: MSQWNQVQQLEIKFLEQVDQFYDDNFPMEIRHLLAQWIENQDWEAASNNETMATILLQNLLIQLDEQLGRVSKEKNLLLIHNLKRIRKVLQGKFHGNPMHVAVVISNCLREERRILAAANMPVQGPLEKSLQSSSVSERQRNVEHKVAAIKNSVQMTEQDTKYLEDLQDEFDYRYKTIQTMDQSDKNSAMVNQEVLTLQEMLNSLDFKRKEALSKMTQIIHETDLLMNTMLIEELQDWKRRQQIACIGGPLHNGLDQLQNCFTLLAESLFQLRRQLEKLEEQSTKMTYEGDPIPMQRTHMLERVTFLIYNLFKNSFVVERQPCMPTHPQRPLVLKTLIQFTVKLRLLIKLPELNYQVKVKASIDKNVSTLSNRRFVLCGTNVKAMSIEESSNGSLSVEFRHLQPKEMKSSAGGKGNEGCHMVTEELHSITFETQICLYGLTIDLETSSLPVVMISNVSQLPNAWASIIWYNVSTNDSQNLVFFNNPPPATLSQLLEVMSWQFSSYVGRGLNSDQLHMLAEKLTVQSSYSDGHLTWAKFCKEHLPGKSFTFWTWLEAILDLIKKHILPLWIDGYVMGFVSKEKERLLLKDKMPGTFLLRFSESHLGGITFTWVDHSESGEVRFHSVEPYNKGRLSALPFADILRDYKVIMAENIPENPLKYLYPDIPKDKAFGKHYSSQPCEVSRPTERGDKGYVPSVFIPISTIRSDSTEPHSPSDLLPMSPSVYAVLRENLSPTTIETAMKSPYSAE
B3: Mothers against decapentaplegic homolog 4 (Homo sapiens), Q13485 (parent)
chain: B1 chain
partner: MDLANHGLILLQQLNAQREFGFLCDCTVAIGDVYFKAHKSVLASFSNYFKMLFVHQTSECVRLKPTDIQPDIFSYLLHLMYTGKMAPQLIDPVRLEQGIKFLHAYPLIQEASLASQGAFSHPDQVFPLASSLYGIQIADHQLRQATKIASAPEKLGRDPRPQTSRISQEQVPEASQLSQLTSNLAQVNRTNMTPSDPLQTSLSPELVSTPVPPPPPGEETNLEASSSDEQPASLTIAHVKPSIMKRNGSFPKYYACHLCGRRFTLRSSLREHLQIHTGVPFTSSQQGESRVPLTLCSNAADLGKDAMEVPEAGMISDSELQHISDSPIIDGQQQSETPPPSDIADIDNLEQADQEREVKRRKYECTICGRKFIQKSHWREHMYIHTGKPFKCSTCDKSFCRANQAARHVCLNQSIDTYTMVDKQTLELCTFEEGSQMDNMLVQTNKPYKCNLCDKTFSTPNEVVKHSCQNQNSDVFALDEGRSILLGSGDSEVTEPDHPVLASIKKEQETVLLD
B4: Mothers against decapentaplegic homolog 4 (Homo sapiens), Q13485 (parent)
chain: B1 chain
partner: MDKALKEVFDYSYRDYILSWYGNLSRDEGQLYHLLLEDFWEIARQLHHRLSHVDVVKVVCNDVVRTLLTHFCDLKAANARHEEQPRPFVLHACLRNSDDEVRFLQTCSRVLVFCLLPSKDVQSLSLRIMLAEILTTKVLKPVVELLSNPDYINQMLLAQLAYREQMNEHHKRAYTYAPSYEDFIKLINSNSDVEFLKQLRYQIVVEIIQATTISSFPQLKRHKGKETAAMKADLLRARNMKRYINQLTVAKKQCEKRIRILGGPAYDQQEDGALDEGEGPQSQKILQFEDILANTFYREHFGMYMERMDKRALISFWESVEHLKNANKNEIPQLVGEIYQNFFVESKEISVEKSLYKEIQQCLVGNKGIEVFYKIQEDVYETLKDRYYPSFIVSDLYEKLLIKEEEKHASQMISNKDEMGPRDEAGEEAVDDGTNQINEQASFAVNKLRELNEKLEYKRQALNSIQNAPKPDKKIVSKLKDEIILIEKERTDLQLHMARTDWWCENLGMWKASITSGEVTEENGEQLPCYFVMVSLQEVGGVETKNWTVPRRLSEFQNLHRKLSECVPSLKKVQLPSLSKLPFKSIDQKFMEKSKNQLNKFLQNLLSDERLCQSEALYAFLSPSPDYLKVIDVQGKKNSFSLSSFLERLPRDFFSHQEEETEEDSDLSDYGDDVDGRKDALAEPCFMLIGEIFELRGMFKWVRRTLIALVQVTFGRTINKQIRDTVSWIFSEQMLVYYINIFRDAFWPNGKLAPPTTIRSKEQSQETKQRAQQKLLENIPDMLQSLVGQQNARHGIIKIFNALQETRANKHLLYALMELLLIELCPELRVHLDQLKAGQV
B5: Mothers against decapentaplegic homolog 4 (Homo sapiens), Q13485 (parent)
chain: B1 chain
partner: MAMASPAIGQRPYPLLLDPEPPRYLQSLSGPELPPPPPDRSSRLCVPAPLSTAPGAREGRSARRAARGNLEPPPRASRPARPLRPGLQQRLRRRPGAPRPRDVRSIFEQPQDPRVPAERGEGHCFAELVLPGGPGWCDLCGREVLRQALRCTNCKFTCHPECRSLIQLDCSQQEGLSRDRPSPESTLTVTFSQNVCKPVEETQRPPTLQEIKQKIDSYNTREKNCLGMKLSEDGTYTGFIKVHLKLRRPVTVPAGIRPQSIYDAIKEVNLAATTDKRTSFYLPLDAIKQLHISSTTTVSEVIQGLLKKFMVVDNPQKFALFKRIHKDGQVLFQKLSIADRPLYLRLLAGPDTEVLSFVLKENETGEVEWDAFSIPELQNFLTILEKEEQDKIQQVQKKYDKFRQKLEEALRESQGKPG
B6: Speckle-type POZ protein (Homo sapiens), O43791 (parent)
chain: MSRVPSPPPPAEMSSGPVAESWCYTQIKVVKFSYMWTINNFSFCREEMGEVIKSSTFSSGANDKLKWCLRVNPKGLDEESKDYLSLYLLLVSCPKSEVRAKFKFSILNAKGEETKAMESQRAYRFVQGKDWGFKKFIRRDFLLDEANGLLPDDKLTLFCEVSVVQDSVNISGQNTMNMVKVPECRLADELGGLWENSRFTDCCLCVAGQEFQAHKAILAARSPVFSAMFEHEMEESKKNRVEINDVEPEVFKEMMCFIYTGKAPNLDKMADDLLAAADKYALERLKVMCEDALCSNLSVENAAEILILADLHSADQLKTQAVDFINYHASDVLETSGWKSMVVSHPHLVAEAYRSLASAQCPFLGPPRKRLKQS
partner: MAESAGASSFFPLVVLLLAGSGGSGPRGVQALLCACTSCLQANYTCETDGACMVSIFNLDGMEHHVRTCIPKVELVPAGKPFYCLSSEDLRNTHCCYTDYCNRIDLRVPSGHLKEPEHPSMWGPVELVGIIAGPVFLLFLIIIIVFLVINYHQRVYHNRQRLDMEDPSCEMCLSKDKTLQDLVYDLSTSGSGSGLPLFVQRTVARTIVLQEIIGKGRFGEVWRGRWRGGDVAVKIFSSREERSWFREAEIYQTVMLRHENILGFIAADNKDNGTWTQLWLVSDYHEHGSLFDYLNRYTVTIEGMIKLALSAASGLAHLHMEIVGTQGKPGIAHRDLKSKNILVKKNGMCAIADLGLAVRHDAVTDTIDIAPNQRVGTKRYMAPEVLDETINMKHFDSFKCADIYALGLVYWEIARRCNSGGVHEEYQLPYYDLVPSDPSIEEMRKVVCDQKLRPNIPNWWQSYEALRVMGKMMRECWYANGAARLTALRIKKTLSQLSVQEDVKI

Variants of B1 are the subject of the first test. The settings on record: with tbx3_human TBX3, O15119.
As for R361H, the “effect of a mutation on the interaction” value is recorded as “with no effect”.

Variants of B2 are the subject of another test. The settings on record: with stat4_human STAT4, Q14765.
Turning to D351H, the “effect of a mutation on the interaction” value was “with no effect”.

Another test covers variants of B2. The settings on record: with stat4_human STAT4, Q14765. This is another data set of the same source.
G386D: the “effect of a mutation on the interaction” value is on record as “with no effect”.

The variants in the next test derive from B2. The settings on record: with stat4_human STAT4, Q14765. The source holds these as a separate data set.
Regarding R361H, the “effect of a mutation on the interaction” value is listed as “with no effect”.

The variants in another test derive from B2. The settings on record: with stat4_human STAT4, Q14765. The source holds these as a separate data set.
For R361C, the “effect of a mutation on the interaction” value was “with no effect”.

In a further test the parent is B3. The settings on record: with zbtb2_human ZBTB2, Q8N680.
Regarding R361H, the “effect of a mutation on the interaction” value is “with no effect”.

The variants in another test derive from B4. The settings on record: with snx25_human SNX25, Q9H3E2.
With R361H, the “effect of a mutation on the interaction” value is given as “with no effect”.

A further test covers variants of B4. The settings on record: with snx25_human SNX25, Q9H3E2. This is another data set of the same source.
For G386D, the “effect of a mutation on the interaction” value is “with no effect”.

In the next test the parent is B5. The settings on record: with rasf5_human RASSF5, Q8WWW0.
R361H: the “effect of a mutation on the interaction” value is “with no effect”.

Another test covers variants of B5. The settings on record: with rasf5_human RASSF5, Q8WWW0. The source holds these as a separate data set.
In the case of G386D, the “effect of a mutation on the interaction” value is recorded as “with no effect”.

The variants in a further test derive from B6. The settings on record: with acv1b_human ACVR1B.
On to F102C, for which the “effect of a mutation on the interaction” value is given as “with no effect”.

Variants of B6 are the subject of the next test. The settings on record: with acv1b_human ACVR1B. This is another data set of the same source.
In the case of F133L, the “effect of a mutation on the interaction” value is given as “with no effect”.
